What was measured:
recombinant human IL-17D = target: T1, recombinant human IL-17D (human, UniProt Q8TAD2 16-202, limits assumed); assay: ELISA, cytokine coated on plate at 1 µg/mL
T1 sequence (looked up): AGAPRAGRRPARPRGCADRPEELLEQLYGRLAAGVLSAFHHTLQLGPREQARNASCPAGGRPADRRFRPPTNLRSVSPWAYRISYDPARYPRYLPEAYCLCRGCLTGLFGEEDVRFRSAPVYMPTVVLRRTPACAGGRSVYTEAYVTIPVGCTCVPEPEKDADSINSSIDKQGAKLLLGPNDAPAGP
Procedure: (§1) Recombinant human IL-17A, IL-17B, IL-17C, IL-17D, IL-17E, IL-17F, IL-1, IL-2, IL-6, IL-8, IL-21, IL-22, IL-23, IFN-g and TNFα (purchased from Sino Biological Inc. or R&D systems) were coated on a 96-well high-absorbing ELISA plate with a carbonate buffer solution with pH 9.6, the coating concentration was 1 μg/mL, the coating amount was 100 μL per well, and the coating was carried ax 4° C. out overnight. The plate was washed five times with PBST and blocked with 300 μL/well of PBST containing 1% BSA and incubated at 25° C. for 1 hour. The plate was washed five times with PBST. […] The plate was washed five times with PBST. Then, horseradish peroxidase-labeled anti-human IgG antibody (Chemicon, Catalog Number AP309P) 1:2000 diluted in PBST containing 1% BSA was added, 100 μL was added to each well, incubated at 25° C. for 1 hour. The plate was washed five times with PBST. 100 μL/well of colorimetric substrate TMB was added and incubated at room temperature for 10 minutes. Color development was terminated by adding 100 μL/well of 1 M H₂SO₄. The absorbance at 450 nm was read on a microplate reader.
(§2) Recombinant human IL-17A, IL-17B, IL-17C, IL-17D, IL-17E, IL-17F, IL-1, IL-2, IL-6, IL-8, IL-21, IL-22, IL-23, IFN-g and TNFα (purchased from Sino Biological Inc. or R&D systems) were coated on a 96-well high-absorbing ELISA plate with a carbonate buffer solution with pH 9.6, the coating concentration was 1 μg/mL, the coating amount was 100 μL per well, and the coating was carried at 4° C. out overnight. Washed five times with PBST. Blocked with 300 μL/well of PBST containing 1% BSA and incubated at 25° C. for 1 hour. Washed five times with PBST.

recombinant human IL-2 = recombinant human IL-2 (human, UniProt P60568 21-153); assay: ELISA, cytokine coated on plate at 1 µg/mL
Procedure: as §1, §2

recombinant human IL-23 = target: T2, recombinant human IL-23 (human, UniProt Q9NPF7 20-189; P29460 23-328); assay: ELISA, cytokine coated on plate at 1 µg/mL
T2 sequence (looked up) 1: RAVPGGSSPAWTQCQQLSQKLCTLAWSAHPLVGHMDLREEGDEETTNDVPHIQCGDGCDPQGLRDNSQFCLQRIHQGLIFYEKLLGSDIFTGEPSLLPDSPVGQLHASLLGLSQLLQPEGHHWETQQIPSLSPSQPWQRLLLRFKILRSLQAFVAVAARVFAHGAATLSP
T2 sequence (looked up) 2: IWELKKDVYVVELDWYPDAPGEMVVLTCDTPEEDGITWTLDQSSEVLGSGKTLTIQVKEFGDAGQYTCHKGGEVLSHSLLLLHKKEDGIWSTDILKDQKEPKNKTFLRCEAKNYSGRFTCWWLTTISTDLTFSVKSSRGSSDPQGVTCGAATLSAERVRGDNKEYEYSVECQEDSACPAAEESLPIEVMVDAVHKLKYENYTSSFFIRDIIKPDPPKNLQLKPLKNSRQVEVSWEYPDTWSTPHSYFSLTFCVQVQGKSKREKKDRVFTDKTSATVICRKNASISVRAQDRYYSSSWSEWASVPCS
Procedure: as §1, §2

recombinant human IL-17A [1] = target: T3, recombinant human IL-17A (human, UniProt Q16552 24-155); assay: SPR, Biacore 3000, human IL-17A coupled to CM5 chip, antibody injected
T3 construct: also called IL-17A antigen
Procedure: The instrument utilizes an optical surface plasmon resonance technique to detect association and dissociation between a molecule coupled on a sensor chip and an analyte. CM5 chips (GE Healthcare, BR-1000-12) were used. Brief experiment procedure was as follow: human IL-17A was dissolved in sodium acetate buffer (pH 5.0) and coupled to CM chip by injecting at a speed of 10 μL/min. 1 M ethanolamine was injected at a speed of 10 μL/min for blocking. […] 10 mM glycine solution (pH 2.0) was used for regeneration. Association rate constants and dissociation rate constants were analyzed and calculated by Biacore 3000 control software.

recombinant rat IL-17A = target: T4, recombinant rat IL-17A (rat, UniProt Q61453 18-150, limits assumed); assay: ELISA, recombinant rat IL-17A coated on the plate, HRP anti-human IgG, OD450nm
T4 sequence (looked up): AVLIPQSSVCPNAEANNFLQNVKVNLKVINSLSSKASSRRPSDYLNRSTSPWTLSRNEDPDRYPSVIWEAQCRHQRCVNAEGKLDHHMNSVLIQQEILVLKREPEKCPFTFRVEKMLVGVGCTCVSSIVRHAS
Procedure: (§3) Recombinant human IL-17A, monkey IL-17A, rat IL-17A and mouse IL-17A (all purchased from Sino Biological Inc.), were coated on a 96-well high-absorbing ELISA plate with a carbonate buffer solution with pH 9.6, the coating concentration was […], the coating amount was 100 μL per well, and the coating was carried out at 4° C. overnight. The plate was washed five times with PBST and blocked with 300 μL/well of PBST containing 1% BSA, and then incubated at 25° C. for 1 hour. The plate was washed five times with PBST. […] The plate was washed five times with PBST. Then, horseradish peroxidase-labeled anti-human IgG antibody (Chemicon, Catalog Number AP309P) 1:2000 diluted in PBST containing 1% BSA was added, 100 μL per well, incubated at 25° C. for 1 hour. The plate was washed five times with PBST. 100 μL/well of colorimetric substrate TMB was added and incubated at room temperature for 10 minutes. Color development was terminated by adding 100 μL/well of 1 M H₂SO₄. The absorbance at 450 nm was read on a microplate reader.

recombinant human IL-17A [2] = target: T3, recombinant human IL-17A; assay: ELISA, recombinant human IL-17A coated on the plate, HRP anti-human IgG, OD450nm
Procedure: as §3

recombinant mouse IL-17A = target: T5, recombinant mouse IL-17A (mouse, UniProt Q62386 26-158, limits assumed); assay: ELISA, recombinant mouse IL-17A coated on the plate, HRP anti-human IgG, OD450nm
T5 sequence (looked up): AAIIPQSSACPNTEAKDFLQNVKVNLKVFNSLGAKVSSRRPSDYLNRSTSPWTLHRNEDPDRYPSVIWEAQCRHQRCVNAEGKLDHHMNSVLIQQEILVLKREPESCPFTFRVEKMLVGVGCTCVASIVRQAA
Procedure: as §3

T3 sequence (Q16552 24-155 limits assumed): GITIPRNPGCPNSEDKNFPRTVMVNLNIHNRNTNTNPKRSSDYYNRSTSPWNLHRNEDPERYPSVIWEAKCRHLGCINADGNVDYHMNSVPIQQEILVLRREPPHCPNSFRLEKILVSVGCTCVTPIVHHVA
Sequence of recombinant human IL-2 (P60568 21-153 limits assumed): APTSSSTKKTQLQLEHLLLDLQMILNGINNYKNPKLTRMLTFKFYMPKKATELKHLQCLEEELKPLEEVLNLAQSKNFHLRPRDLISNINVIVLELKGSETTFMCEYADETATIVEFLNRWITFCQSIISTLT

B1: anti-human IL-17A chimeric monoclonal antibody (antibody, human IgG1, kappa, V domains shown)
VH: DVQVQESGPGLVKPSQSLSLTCTVTGNSITSYYAWNWIRQFPGNKLEWMGYITYSGTTSYNPSLKSRISITRDTSKNQFFLQLNSVTTEDTATYYCAREEYDDIYAVDYWGQGTSVTVSS
VL: IIVMTQTPLSLPVSLGDQASISCRSSQSLVHSNGNTYLHWYLQKPGQSPKLLIYKVYNRFSGVPDRFSGSGSGTDFTLKISRVEAEDLGVYFCSQSTHFPTFGGGTKLEIKR
notes: expressed in 293F cells; also called Anti-human IL-17A Chimeric Antibody; chimeric anti-human IL-17A monoclonal antibody
binding result (recombinant human IL-17D): no binding
binding result (recombinant human IL-2): no binding
binding result (recombinant human IL-23): no binding
Kd (recombinant human IL-17A [1]): 0.03 nM
koff (recombinant human IL-17A [1]): 1.49e-06 s⁻¹
kon (recombinant human IL-17A [1]): 54100 M⁻¹ s⁻¹
binding result (recombinant rat IL-17A): no binding (tested: about 20 nM)
EC50 (recombinant human IL-17A [2]): 0.07 nM
binding result (recombinant mouse IL-17A): no binding (tested: about 20 nM)

— patent US20190256588A1 (BEIJING HANMI PHARM, published 2019)
